Columns and labels:
Kucore;LigD = Kucore;LigD (Mycobacterium …, UniProt P9WKD9;P9WNV3 1-238;1-759, |); assay: EMSA; 10 uM Ku, 1 uM LigD; supershift; EMSA: 50 mM Tris-HCl pH 8.0, 50 mM NaCl, 1 mM DTT, 5 mM MgCl2, 4% glycerol, 0.025 mg/ml BSA, 10 nM DNA, 30 C 20 min; FP: 10 mM Tris-HCl pH 8, 10 mM NaCl, 10% glycerol, 1 mM TCEP, 50 nM DNA, 30 C; ternary EMSA: 20 mM Tris-HCl pH 8.0, 5 mM MgCl2, 5% glycerol, 37 C; bridging: 20 mM Tris-HCl pH 7.5, 50 mM KCl, 5 mM EDTA, 1 mM DTT, 5% glycerol, 40 ug/ml BSA, room temperature; details: protein: recombinant;recombinant; tags: His (Ni-NTA purified; pMCSG7);His (Ni-NTA purified; pMCSG7); chain copies: 2;1; label: 5' 6-FAM on strand 1; blunt
Chain of Kucore;LigD (P9WKD9 1-238, chain 1 of 2): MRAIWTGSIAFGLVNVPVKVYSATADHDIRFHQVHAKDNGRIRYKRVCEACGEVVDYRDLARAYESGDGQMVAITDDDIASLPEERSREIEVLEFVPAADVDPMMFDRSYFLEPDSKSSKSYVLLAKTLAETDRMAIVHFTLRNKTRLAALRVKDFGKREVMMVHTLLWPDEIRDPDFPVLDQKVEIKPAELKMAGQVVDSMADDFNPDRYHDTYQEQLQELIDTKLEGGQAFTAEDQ
Chain of Kucore;LigD (P9WNV3 whole entry, chain 2 of 2): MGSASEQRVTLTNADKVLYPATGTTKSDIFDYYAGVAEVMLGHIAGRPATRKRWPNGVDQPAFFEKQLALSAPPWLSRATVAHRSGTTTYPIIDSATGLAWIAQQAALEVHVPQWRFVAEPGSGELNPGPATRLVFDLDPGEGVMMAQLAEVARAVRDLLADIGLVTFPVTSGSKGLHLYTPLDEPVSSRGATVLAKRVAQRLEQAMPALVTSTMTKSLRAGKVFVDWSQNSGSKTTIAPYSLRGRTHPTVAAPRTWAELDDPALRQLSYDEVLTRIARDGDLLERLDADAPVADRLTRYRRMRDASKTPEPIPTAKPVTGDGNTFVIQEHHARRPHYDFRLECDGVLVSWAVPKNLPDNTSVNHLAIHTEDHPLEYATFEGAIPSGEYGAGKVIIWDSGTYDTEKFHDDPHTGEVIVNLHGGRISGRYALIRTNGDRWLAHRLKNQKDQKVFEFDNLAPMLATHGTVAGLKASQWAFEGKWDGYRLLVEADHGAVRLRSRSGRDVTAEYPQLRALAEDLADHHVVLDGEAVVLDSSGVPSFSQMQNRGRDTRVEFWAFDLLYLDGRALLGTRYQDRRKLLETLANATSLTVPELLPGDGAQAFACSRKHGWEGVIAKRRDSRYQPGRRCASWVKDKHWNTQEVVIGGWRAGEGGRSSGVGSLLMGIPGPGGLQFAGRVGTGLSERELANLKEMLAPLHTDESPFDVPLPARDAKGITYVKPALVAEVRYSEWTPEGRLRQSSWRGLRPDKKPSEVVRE

KuWT;LigD = KuWT;LigD (Mycobacterium …, UniProt P9WKD9;P9WNV3 1-273;1-759, |); assay: as above; details: protein: recombinant;recombinant; tags: His (Ni-NTA purified; pMCSG7);His (Ni-NTA purified; pMCSG7); chain copies: 2;1; label: 5' 6-FAM on strand 1; blunt
Chain of KuWT;LigD (P9WKD9 whole entry, chain 1 of 2): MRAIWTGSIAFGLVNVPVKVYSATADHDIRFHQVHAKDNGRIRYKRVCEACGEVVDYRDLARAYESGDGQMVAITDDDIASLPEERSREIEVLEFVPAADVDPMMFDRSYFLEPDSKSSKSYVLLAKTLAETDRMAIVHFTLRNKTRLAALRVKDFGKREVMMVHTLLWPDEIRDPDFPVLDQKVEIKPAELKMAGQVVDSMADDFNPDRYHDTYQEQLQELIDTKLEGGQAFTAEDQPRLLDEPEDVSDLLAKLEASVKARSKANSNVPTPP
Chain of KuWT;LigD (P9WNV3 whole entry, chain 2 of 2): as the sequence (P9WNV3 whole entry, chain 2 of 2) above

Kumin;LigD = Kumin;LigD (Mycobacterium …, UniProt P9WKD9;P9WNV3 1-259;1-759, |); assay: as above; details: protein: recombinant;recombinant; tags: His (Ni-NTA purified; pMCSG7);His (Ni-NTA purified; pMCSG7); chain copies: 2;1; label: 5' 6-FAM on strand 1; blunt
Chain of Kumin;LigD (P9WKD9 1-259, chain 1 of 2): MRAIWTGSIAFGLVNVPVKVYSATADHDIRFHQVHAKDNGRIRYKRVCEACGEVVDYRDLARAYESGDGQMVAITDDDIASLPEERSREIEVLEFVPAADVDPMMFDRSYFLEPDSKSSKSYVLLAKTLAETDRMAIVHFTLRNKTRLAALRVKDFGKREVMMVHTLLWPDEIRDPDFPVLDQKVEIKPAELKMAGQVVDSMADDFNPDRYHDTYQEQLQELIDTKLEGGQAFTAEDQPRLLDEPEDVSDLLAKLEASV
Chain of Kumin;LigD (P9WNV3 whole entry, chain 2 of 2): as the sequence (P9WNV3 whole entry, chain 2 of 2) above

KuWT;POL = KuWT;POL (Mycobacterium …, UniProt P9WKD9;P9WNV3 1-273;1-287, |); assay: EMSA; supershift; EMSA: 50 mM Tris-HCl pH 8.0, 50 mM NaCl, 1 mM DTT, 5 mM MgCl2, 4% glycerol, 0.025 mg/ml BSA, 10 nM DNA, 30 C 20 min; FP: 10 mM Tris-HCl pH 8, 10 mM NaCl, 10% glycerol, 1 mM TCEP, 50 nM DNA, 30 C; ternary EMSA: 20 mM Tris-HCl pH 8.0, 5 mM MgCl2, 5% glycerol, 37 C; bridging: 20 mM Tris-HCl pH 7.5, 50 mM KCl, 5 mM EDTA, 1 mM DTT, 5% glycerol, 40 ug/ml BSA, room temperature; details: protein: recombinant;recombinant; tags: His (Ni-NTA purified; pMCSG7);His (Ni-NTA purified); chain copies: 2;1; label: 5' 6-FAM on strand 1; blunt
Chain of KuWT;POL (P9WNV3 1-287, one chain of several): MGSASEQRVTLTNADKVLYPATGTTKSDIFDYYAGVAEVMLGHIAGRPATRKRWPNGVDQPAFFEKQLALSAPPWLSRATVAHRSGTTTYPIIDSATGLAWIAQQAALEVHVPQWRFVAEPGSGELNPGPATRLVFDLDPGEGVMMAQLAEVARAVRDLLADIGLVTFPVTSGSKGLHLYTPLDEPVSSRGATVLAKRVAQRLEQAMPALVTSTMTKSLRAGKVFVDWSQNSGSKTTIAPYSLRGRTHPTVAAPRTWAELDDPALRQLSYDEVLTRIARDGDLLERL

Kucore;LIG = Kucore;LIG (Mycobacterium …, UniProt P9WKD9;P9WNV3 1-238;454-759, |); assay: as above; details: protein: recombinant;recombinant; tags: His (Ni-NTA purified; pMCSG7);His (Ni-NTA purified); chain copies: 2;1; label: 5' 6-FAM on strand 1; blunt
Chain of Kucore;LIG (P9WNV3 454-759, one chain of several): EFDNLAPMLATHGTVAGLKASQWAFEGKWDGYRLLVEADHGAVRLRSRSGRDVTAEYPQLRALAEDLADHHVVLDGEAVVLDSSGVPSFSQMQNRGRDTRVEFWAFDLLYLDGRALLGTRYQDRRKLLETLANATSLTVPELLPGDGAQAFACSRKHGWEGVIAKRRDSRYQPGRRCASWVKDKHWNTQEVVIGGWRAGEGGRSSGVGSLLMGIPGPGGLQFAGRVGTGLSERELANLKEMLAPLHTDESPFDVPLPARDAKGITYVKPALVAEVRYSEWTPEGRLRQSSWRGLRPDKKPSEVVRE

KuWT;LIG = KuWT;LIG (Mycobacterium …, UniProt P9WKD9;P9WNV3 1-273;454-759, |); assay: as above; details: protein: recombinant;recombinant; tags: His (Ni-NTA purified; pMCSG7);His (Ni-NTA purified); chain copies: 2;1; label: 5' 6-FAM on strand 1; blunt
Chain of KuWT;LIG (P9WKD9 whole entry, chain 1 of 2): as the sequence (P9WKD9 whole entry, chain 1 of 2) above
Chain of KuWT;LIG (P9WNV3 454-759, chain 2 of 2): as the sequence (P9WNV3 454-759, one chain of several) above

Measured: binding result

B1: 40 bp dsDNA (dsDNA)
DNA 1: CAGGGTAAGTGTGGAGGTGTAGGGAAGGGAATGTTGTCTG
DNA 2: CAGACAACATTCCCTTCCCTACACCTCCACACTTACCCTG
binds: all assays above

From publication PMC9638933
